In patent publication US10543284B2, “Anti-c-Met antibody and anti-c-Met antibody-cytotoxic drug conjugate and pharmaceutical use thereof” (Suzhou Suncadia Biopharmaceuticals Co., Ltd., priority 2015, dated 2020):

Legend:
[1] = LC-MS analysis of deamination (biophysical stability); type: physicochemical; details: Proportion of deamination molecules; 0.66-1.0% is within background
Experimental: To evaluate the biophysical stability of the antibodies of the invention, such as the presence of glycosylation and deamination and stability, LC-MS analysis was used.
The molecular weight of the heavy and light chains was detected by LC-MS to analyze glycosylation. Deamination was analyzed by LC-MS at 4° C. for a long time (at least 3 months), or at 40° C. for 21 days under an accelerated condition. Samples treated with different conditions were diluted to 2 mg/ml with pH7.2 Tris-HCl, and added into 10 mM TCEP and 6M urea (AMRESCO, Cat #0378)3, then the samples were incubated for 20 minutes at […]. IAA(Sigma-Aldrich, Cat # I1149) with a final concentration of 20 mM was added and was incubated for 15 minutes in darkness to protect the sulfhydryl group. The pH was adjusted using pH7.2 Tris-HCl, and protease (Sigma-Aldrich, Cat # T6567) was added at a proportion by weight of 10:1 (protein: enzyme). The samples were incubated at 37° C. for 25 minutes, and then formic acid with a final concentration of 0.1% (Fluca, Cat #94318) was added to terminate the reactions. Samples were centrifuged and analyzed by LC-MS.
BiopharmaLynx was used to analyze the presence of deamination. […] The peak area was obtained by integration, and the percentages of deamination and oxidation were calculated.

[2] = molecular target: T1, cell line MKN45, which overexpresses c-Met (Homo sapiens, UniProt P08581); assay: FACS binding activity with MKN45 cells; details: Table 6
T1 construct: host or cells: MKN45
T1 sequence (P08581 25-1390): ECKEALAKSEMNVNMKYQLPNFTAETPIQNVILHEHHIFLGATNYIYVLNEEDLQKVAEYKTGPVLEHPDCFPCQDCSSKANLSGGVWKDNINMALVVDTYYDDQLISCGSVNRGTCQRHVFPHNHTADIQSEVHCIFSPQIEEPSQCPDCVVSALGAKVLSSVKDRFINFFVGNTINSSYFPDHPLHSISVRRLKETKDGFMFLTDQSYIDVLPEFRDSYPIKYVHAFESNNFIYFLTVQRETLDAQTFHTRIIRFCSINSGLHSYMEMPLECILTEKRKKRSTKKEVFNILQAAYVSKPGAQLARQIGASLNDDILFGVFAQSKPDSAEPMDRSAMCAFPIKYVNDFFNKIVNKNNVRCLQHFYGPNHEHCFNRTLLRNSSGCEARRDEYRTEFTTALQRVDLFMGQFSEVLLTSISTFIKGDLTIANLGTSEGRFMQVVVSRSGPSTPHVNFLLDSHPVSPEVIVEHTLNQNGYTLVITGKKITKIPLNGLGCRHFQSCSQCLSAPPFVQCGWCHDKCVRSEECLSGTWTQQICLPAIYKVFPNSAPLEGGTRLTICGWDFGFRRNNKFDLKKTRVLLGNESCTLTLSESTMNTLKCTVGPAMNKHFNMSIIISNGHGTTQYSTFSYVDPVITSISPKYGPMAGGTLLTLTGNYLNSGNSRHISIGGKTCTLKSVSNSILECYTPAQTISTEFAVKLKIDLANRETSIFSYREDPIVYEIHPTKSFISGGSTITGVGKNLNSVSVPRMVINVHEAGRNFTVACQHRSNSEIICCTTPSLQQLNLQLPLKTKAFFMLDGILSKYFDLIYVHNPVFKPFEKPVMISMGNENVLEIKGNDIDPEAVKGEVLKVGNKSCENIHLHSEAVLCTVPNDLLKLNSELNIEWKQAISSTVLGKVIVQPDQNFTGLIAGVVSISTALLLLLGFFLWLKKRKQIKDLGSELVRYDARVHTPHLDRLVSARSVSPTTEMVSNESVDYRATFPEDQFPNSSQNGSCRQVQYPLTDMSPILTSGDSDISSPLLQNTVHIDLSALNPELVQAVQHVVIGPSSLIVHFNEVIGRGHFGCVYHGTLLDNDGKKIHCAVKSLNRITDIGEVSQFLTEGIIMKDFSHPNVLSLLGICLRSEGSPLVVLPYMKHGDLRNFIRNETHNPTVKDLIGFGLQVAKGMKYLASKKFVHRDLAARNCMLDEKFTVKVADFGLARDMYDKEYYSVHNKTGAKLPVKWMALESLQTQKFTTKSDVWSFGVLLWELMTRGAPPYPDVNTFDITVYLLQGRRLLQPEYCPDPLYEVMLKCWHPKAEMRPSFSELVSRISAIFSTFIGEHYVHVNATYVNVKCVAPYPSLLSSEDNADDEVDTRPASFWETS
Experimental: A FACS method was used to detect the binding activity of c-Met humanized antibodies with the cell line MKN45, which overexpresses c-Met. […] The plate was incubated for 1 hour at 4° C. FACS buffer (PBS comprising 2.5% (v/v) FBS (Hyclone, Cat: SH30256.01B)) was added. The plate was centrifuged under 4° C. at 1300 rmp for 4 minutes, and the supernatant was discarded. This procedure was repeated three times. 100 μl of secondary antibodies (Fluorescence labeled goat-anti-mouse secondary antibodies with 1:200 dilution, Biolegend, Cat No. 405307; Fluorescence labeled anti-human secondary antibody with 1:30 dilution, Biolegend, Cat No. 409304) were added to each well, and the plate was incubated for 1 hour at 4° C. FACS buffer was added, the plate was centrifuged under 4° C. at 1300 rpm for 4 minutes, the supernatants were discarded; and this procedure was repeated three times. 200 μl FACS buffer was added to resuspend the cells, and the samples were prepared and detected by flow cytometry (BD FACS Array).

EC50 [2]: 1.6 nM
B1: Ab-9: humanized anti c-Met antibody: heavy chain sequence of SEQ ID NO: 23 and light chain sequence of SEQ ID NO: 26 (antibody)
heavy: QVTLKESGPVLVKPTETLTLTCTVSGFSLPNYGVHWVRQPPGKALEWLAVIWSGGSTNYAAAFVSRLRISKDTSKSQVVFTMNNMDPVDTATYYCARNHDNPYNYAMDYWGQGTTVTVSSASTKGPSVFPLAPCSRSTSESTAALGCLVKDYFPEPVTVSWNSGALTSGVHTFPAVLQSSGLYSLSSVVTVPSSNFGTQTYTCNVDHKPSNTKVDKTVERKCCVECPPCPAPPVAGPSVFLFPPKPKDTLMISRTPEVTCVVVDVSHEDPEVQFNWYVDGVEVHNAKTKPREEQFNSTFRVVSVLTVVHQDWLNGKEYKCKVSNKGLPAPIEKTISKTKGQPREPQVYTLPPSREEMTKNQVSLTCLVKGFYPSDIAVEWESNGQPENNYKTTPPMLDSDGSFFLYSKLTVDKSRWQQGNVFSCSVMHEALHNHYTQKSLSLSPGK
light: DIVLTQSPASLAVSPGQRATITCRANKSVSTSTYNYLHWYQQKPGQPPKLLIYLASNLASGVPARFSGSGSGTDFTLTINPVEANDTANYYCQHSRDLPPTFGQGTKLEIKRTVAAPSVFIFPPSDEQLKSGTASVVCLLNNFYPREAKVQWKVDNALQSGNSQESVTEQDSKDSTYSLSSTLTLSKADYEKHKVYACEVTHQGLSSPVTKSFNRGEC
modifications: Ab-9 heavy chain; Ab-9 light chain
Analysis of deamination 4° C., 3.5 months [1]: 0.66%
